# T1: C-luc Apaf-1 (full length Apaf-1 fused through its N-terminus to the C-terminal fragment, amino acids 395-550, of P. pyralis luciferase, with C-terminal His-tag), O14727
# T1 chain: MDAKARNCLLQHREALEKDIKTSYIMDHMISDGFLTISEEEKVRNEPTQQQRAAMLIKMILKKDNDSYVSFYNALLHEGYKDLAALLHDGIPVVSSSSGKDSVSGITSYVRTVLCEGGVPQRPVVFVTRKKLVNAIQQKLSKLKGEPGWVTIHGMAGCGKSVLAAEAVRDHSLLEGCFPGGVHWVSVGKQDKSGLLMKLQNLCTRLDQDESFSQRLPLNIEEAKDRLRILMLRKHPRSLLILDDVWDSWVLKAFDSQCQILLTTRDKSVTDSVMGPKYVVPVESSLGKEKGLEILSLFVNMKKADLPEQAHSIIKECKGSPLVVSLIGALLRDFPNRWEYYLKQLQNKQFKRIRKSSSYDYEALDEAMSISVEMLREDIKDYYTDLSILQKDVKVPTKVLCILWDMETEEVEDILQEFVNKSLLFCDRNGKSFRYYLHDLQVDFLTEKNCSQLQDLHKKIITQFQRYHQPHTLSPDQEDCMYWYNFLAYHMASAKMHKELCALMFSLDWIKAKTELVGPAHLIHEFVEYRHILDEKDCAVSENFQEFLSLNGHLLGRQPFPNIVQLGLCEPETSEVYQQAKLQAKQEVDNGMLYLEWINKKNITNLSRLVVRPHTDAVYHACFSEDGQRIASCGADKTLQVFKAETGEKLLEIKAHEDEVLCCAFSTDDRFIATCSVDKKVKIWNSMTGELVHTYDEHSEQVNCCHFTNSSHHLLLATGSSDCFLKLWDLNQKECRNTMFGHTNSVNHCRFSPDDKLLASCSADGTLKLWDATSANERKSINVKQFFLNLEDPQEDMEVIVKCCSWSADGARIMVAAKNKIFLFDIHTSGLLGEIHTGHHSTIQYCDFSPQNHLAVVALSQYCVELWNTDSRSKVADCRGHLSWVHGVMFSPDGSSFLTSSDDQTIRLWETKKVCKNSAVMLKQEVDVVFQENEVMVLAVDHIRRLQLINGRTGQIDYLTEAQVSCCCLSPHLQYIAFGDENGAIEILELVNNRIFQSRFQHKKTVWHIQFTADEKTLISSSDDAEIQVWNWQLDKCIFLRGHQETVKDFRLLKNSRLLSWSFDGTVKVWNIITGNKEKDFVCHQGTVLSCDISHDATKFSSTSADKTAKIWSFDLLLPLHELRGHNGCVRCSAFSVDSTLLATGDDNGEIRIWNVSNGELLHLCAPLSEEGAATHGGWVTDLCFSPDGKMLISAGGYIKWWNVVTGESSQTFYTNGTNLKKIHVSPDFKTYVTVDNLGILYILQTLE
# Assays:
# [1] = biological target: T1, C-luc Apaf-1 (full length Apaf-1 fused …); experiment: split reporter (BiFC, NanoBiT); cell-based split luciferase: HEK293 co-transfected with N-luc Apaf-1 and C-luc Apaf-1 (N/P 12), apoptosis induced with 0.5 μM doxorubicin, lysates (CCLR) prepared 12, 24, 28 and 36 h after induction; luciferase activity against uninduced cells; settings: remark: other sources report otherwise
# [2] = biological target: T1, C-luc Apaf-1 (full length Apaf-1 fused …); experiment: split reporter (BiFC, NanoBiT); cell-free split luciferase: extracts of N-luc Apaf-1 and C-luc Apaf-1 expressing cells mixed, cytochrome c (1.6 μM) and dATP (1.0 mM) added, room temperature; against the mixture without cytochrome c and dATP; settings: remark: other sources report otherwise
binder,measurement,setting,value
"N-luc Apaf-1 (full length Apaf-1 fused through its N-terminus to the N-terminal fragment, amino acids 1-416, of P. pyralis luciferase), O14727 1-1248 (natural protein) MDAKARNCLLQHREALEKDIKTSYIMDHMISDGFLTISEEEKVRNEPTQQQRAAMLIKMILKKDNDSYVSFYNALLHEGYKDLAALLHDGIPVVSSSSGKDSVSGITSYVRTVLCEGGVPQRPVVFVTRKKLVNAIQQKLSKLKGEPGWVTIHGMAGCGKSVLAAEAVRDHSLLEGCFPGGVHWVSVGKQDKSGLLMKLQNLCTRLDQDESFSQRLPLNIEEAKDRLRILMLRKHPRSLLILDDVWDSWVLKAFDSQCQILLTTRDKSVTDSVMGPKYVVPVESSLGKEKGLEILSLFVNMKKADLPEQAHSIIKECKGSPLVVSLIGALLRDFPNRWEYYLKQLQNKQFKRIRKSSSYDYEALDEAMSISVEMLREDIKDYYTDLSILQKDVKVPTKVLCILWDMETEEVEDILQEFVNKSLLFCDRNGKSFRYYLHDLQVDFLTEKNCSQLQDLHKKIITQFQRYHQPHTLSPDQEDCMYWYNFLAYHMASAKMHKELCALMFSLDWIKAKTELVGPAHLIHEFVEYRHILDEKDCAVSENFQEFLSLNGHLLGRQPFPNIVQLGLCEPETSEVYQQAKLQAKQEVDNGMLYLEWINKKNITNLSRLVVRPHTDAVYHACFSEDGQRIASCGADKTLQVFKAETGEKLLEIKAHEDEVLCCAFSTDDRFIATCSVDKKVKIWNSMTGELVHTYDEHSEQVNCCHFTNSSHHLLLATGSSDCFLKLWDLNQKECRNTMFGHTNSVNHCRFSPDDKLLASCSADGTLKLWDATSANERKSINVKQFFLNLEDPQEDMEVIVKCCSWSADGARIMVAAKNKIFLFDIHTSGLLGEIHTGHHSTIQYCDFSPQNHLAVVALSQYCVELWNTDSRSKVADCRGHLSWVHGVMFSPDGSSFLTSSDDQTIRLWETKKVCKNSAVMLKQEVDVVFQENEVMVLAVDHIRRLQLINGRTGQIDYLTEAQVSCCCLSPHLQYIAFGDENGAIEILELVNNRIFQSRFQHKKTVWHIQFTADEKTLISSSDDAEIQVWNWQLDKCIFLRGHQETVKDFRLLKNSRLLSWSFDGTVKVWNIITGNKEKDFVCHQGTVLSCDISHDATKFSSTSADKTAKIWSFDLLLPLHELRGHNGCVRCSAFSVDSTLLATGDDNGEIRIWNVSNGELLHLCAPLSEEGAATHGGWVTDLCFSPDGKMLISAGGYIKWWNVVTGESSQTFYTNGTNLKKIHVSPDFKTYVTVDNLGILYILQTLE","fold change in luciferase activity against uninduced cells, 12 h after apoptosis induction",[1],10 fold
same,"fold change in luciferase activity against uninduced cells, 24 h after apoptosis induction",[1],130 fold
same,"fold change in luciferase activity against uninduced cells, 28 h after apoptosis induction",[1],280 fold
same,"fold change in luciferase activity against uninduced cells, 36 h after apoptosis induction",[1],40 fold
same,fold increase in reconstituted luciferase activity with dATP/cytochrome c against the mixture without them,[2],5 fold

# From article PMC5856089
